Assay results as given in US20110086026A1 (ROCHE PALO ALTO, published 2011).

T1: hIL-13Rα2:hFc chimeric protein (R&D Systems, UK) (human, UniProt Q14627 27-343)
T1 construct: Bought; not shown: human Fc (hFc) of the bought chimera
T1 sequence (looked up): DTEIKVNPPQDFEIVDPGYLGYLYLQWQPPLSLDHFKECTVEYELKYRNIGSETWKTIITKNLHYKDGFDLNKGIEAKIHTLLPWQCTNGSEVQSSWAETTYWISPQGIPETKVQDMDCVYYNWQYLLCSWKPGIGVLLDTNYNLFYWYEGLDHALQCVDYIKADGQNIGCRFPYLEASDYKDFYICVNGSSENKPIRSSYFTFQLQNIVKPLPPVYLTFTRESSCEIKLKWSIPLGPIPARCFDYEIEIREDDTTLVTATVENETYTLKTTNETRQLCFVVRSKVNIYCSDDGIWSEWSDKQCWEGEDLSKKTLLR

T2: hIL-13Rα1:hFc chimeric protein (R&D Systems, UK) (human, UniProt P78552 22-343)
T2 construct: extracellular domain; Bought; also called chimeric hIL-13Rα1:hFc; not shown: human Fc (hFc) of the bought chimera
T2 sequence (looked up): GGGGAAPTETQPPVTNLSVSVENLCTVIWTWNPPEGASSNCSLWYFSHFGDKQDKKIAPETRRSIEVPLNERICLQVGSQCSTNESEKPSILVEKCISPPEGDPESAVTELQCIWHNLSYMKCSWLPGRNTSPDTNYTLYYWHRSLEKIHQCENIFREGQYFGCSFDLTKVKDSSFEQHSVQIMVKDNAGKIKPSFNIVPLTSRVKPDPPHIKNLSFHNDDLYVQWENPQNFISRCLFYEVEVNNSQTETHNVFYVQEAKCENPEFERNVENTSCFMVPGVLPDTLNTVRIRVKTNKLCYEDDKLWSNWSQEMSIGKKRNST

T3: extracellular domain of hIL-13Rα1 cleaved from hIL-13Rα1:hFc chimeric protein (human, UniProt P78552 22-343)
T3 construct: extracellular domain; also called Cleaved hIL-13Rα1 molecules (MW 40 kDa)
T3 sequence (looked up): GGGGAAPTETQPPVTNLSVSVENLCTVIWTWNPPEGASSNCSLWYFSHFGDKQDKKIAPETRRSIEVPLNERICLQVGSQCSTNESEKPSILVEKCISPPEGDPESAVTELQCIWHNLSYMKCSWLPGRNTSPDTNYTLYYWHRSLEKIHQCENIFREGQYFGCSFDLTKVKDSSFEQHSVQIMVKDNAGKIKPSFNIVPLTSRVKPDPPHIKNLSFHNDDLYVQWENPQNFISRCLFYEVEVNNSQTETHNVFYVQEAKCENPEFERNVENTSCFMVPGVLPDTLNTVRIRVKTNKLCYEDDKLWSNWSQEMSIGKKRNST


Key:
[1] = molecular target: FcγRIIIa (CD16) on Natural Killer (NK) cells (UniProt P08637); experiment: FACS on NK cells in PBMC, maximum binding at 20 µg/ml
Sequence of FcγRIIIa (CD16) on Natural Killer (NK) cells (P08637 17-254 limits assumed): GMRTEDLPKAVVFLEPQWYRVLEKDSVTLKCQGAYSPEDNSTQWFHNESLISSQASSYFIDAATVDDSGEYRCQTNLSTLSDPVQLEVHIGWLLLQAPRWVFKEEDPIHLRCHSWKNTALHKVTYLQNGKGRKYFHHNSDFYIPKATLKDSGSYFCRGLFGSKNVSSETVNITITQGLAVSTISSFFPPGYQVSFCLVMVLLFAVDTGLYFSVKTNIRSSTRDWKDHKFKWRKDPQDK

[2] = molecular target: T1, hIL-13Rα2:hFc chimeric protein (R&D …); experiment: ELISA, immobilized hIL-13Rα2:hFc, detection with anti-human kappa-POD, OD 405
Procedure: Chimeric proteins hIL-13Rα2:hFc and hIL-4Rα:hFc (R&D Systems, UK) were dissolved in PBS (1 μg/ml) and allowed to adsorb to microtiter plates (NUNC Maxisorb) by incubation over night at 4° C. After washing the plates with washing buffer (WB=0.9% NaCl; 0.1% Tween® 20) unspecific binding sites were blocked by addition of 100 μl incubation buffer (IB=PBS with 1% crotein C and 0.1% Tween® 20) and incubation for 30 min at room-temperature (RT). Then serially diluted HuMab and control antibodies (100 μl/well; dilutions in IB) were added and incubated for 1 hour at RT. The plates were again washed and bound antibody was detected by incubation with peroxidase conjugated rabbit anti-human kappa (DAKO, Denmark) in a final dilution of 1:500 in IB. After incubation for 1 h at RT and a subsequent washing step, the plates were developed with ready-to-use ABTS® solution (Roche Diagnostics GmbH, DE) at RT in the dark. Absorbance was measured at 405 nm after absorbance of the highest concentration reached a sufficient OD.

[3] = molecular target: T2, hIL-13Rα1:hFc chimeric protein (R&D …); experiment: ELISA, immobilized hu IL-13Ra1:Fc, detection with anti-human kappa-POD, OD 405
[4] = molecular target: FcγRIIIa (CD16) on Natural Killer (NK) cells (UniProt P08637); experiment: FACS on NK cells in PBMC, 20 µg/ml, with 20 µg/ml of the blocking anti-CD16 clone 3G8 as competitor
[5] = molecular target: T3, extracellular domain of hIL-13Rα1 …; experiment: SPR Biacore 3000, CM5 chip, HuMab captured by anti-hFcγ, cleaved hIL-13Rα1 as analyte, bivalent analyte model
Procedure: (§1) In these experiments, the affinity of the original IgG1 derived from hybridoma was compared with the affinities of the recombinant variant IgG1-Ala-Ala. For interaction analysis, a Biacore 3000 instrument was used. Running and reaction buffer was HBS-P (10 mM HEPES, 150 mM NaCl, 0.005% polysurfactant P, pH 7.4) at 25° C. Capturing antibody molecules (anti-hFcγ) were amine-coupled at a concentration of 20 μg/ml at a flow rate of 5 μl/min for 20 minutes. HuMabs were injected at concentrations of 10 μg/ml at a flow rate of 10 μl/min for 1 minute. Cleaved hIL-13 Rα1 molelcules (analyte) were injected for five minutes at eight concentrations between 1.56 nM and 200 nM and washed with HBS-P for five minutes. Regeneration of the surface was accomplished by two injections of 100 mM HCl for 1 min each. The chip, assay format and sequence of injections and kinetic data correspond to the description in Table 4. Kinetic data were calculated by fitting kinetic data to a bivalent analyte binding model.

[6] = molecular target: T3, extracellular domain of hIL-13Rα1 …; experiment: SPR Biacore 3000, CM5 chip, HuMab captured by anti-hFcγ, cleaved hIL-13Rα1 as analyte, bivalent analyte model (ka1)
Procedure: as §1

[7] = molecular target: T3, extracellular domain of hIL-13Rα1 …; experiment: SPR Biacore 3000, CM5 chip, HuMab captured by anti-hFcγ, cleaved hIL-13Rα1 as analyte, bivalent analyte model (kd1)
Procedure: as §1

| Binder | Bmax (MFI) [1] | binding result [2] | EC50 (read off the curve) [3] | Bmax (MFI) [4] | Kd [5] | kon [6] | koff [7] |
| --- | --- | --- | --- | --- | --- | --- | --- |
| HuMab LC5002-005 (antibody, V domains shown, Only the variable domains are tied to this antibody; also called hu-MAB<h-IL-13Ralpha>LC.5002-005 (DSM ACC2711)) VH: EVQVLDSGGGLVQPGGSLRLSCTASGFTFRLYTMSWVRQTPGRGLEWVSGISGSGLSTYFADSVKGRFTISRDNSKNTVYLQMNSLRAEDTAVYYCAKEGDWIYFDSWGQGTLVIVSS VL: DIQMTQSPSSLSASVGDRVTITCRASQGISSWLAWYQQKPEKAPKSLIYAASSLQSGVPSRFSGSGSGTDFTLTISSLQPEDFATYYCQQYNSHPPTFGQGTKLEIK | 581 MFI | no binding (tested: 3.3 nM) | ~0.4 nM | 260 MFI | 2.7 nM | 133000 M⁻¹ s⁻¹ | 0.00036 s⁻¹ |
| HuMab LC5002-003 (antibody, V domains shown, Human IgG1 kappa from a HuMab mouse hybridoma; Only the variable domains are tied to this antibody; also called LC50002-003; hu-MAB<h-IL-13Ralpha>LC.5002-003 (DSM ACC2710)) VH: EVQLLESGGDLIQPGGSLRLSCAASGFTFNIYAMNWVRQAPGKGLEWVSVISGRGITTYYADSVKGRFTISRDNSKNTLYLQMDSLRAEDTAVYYCAKGSSYWTDFDYWGQGTLVTVSS VL: DIQMTQSPSSLSASVGDRVTITCRASQGISSWLAWYQQKPEKAPKSLIYAASSLQSGVPSRFSGSGSGTDFTLTISSLQPEDFATYYCQQYNSYPWTFGQGTKVEIK | – | no binding (tested: 3.3 nM) | ~0.4 nM | – | – | – | – |
